Test results as given in article PMC9887757.

How the values were obtained:
[1] = target: BKPyV VLP genotype Ia (VP1 virus-like particles) (BK polyomavirus) (UniProt P03088); assay: SPR; avidity
[2] = target: BKPyV VLP genotype II (VP1 virus-like particles) (BK polyomavirus) (UniProt P03088); assay: SPR; avidity
[3] = target: BKPyV VLP genotype IVc2 (VP1 virus-like particles) (BK polyomavirus) (UniProt P03088); assay: SPR; avidity
[4] = target: BKPyV VLP genotype III (VP1 virus-like particles) (BK polyomavirus) (UniProt P03088); assay: SPR; avidity
[5] = target: BKPyV VLP genotype Ia (VP1 virus-like particles) (BK polyomavirus) (UniProt P03088); assay: ELISA
[6] = target: BKPyV VLP genotype II (VP1 virus-like particles) (BK polyomavirus) (UniProt P03088); assay: ELISA
[7] = target: BKPyV VLP genotype IVc2 (VP1 virus-like particles) (BK polyomavirus) (UniProt P03088); assay: ELISA
[8] = target: BKPyV VLP genotype III (VP1 virus-like particles) (BK polyomavirus) (UniProt P03088); assay: ELISA

Sequence of BKPyV VLP genotype Ia (VP1 virus-like particles) (BK polyomavirus) (P03088 whole entry): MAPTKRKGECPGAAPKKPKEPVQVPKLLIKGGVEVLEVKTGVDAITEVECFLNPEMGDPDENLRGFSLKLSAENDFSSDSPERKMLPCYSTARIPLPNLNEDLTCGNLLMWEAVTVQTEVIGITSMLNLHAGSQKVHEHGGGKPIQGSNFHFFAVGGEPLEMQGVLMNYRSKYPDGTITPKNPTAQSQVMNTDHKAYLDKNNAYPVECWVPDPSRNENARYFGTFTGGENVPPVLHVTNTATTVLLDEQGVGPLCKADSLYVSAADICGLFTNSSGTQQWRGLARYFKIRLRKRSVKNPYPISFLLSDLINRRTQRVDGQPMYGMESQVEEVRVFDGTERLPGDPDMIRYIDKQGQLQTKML
Sequence of BKPyV VLP genotype IVc2 (VP1 virus-like particles) (BK polyomavirus) (P03088 whole entry, looked up): as the sequence (P03088 whole entry) above
Sequence of BKPyV VLP genotype II (VP1 virus-like particles) (BK polyomavirus) (P03088 whole entry, looked up): as the sequence (P03088 whole entry) above
Sequence of BKPyV VLP genotype III (VP1 virus-like particles) (BK polyomavirus) (P03088 whole entry, looked up): as the sequence (P03088 whole entry) above

With “antibody 120 (clonotype 120, 41F17-like) (from UniProt P01857)” the Kd [1] was 0.11 nM, the Kd [2] was 0.16 nM and the Kd [3] was 0.86 nM. It also gave a Kd [4] of 0.21 nM, an EC50 [5] of 0.17 nM and an EC50 [6] of 0.26 nM. The EC50 [7] was 0.19 nM and the EC50 [8] was 0.24 nM.

Work on “antibody 160 (clonotype 160, 41F17-like) (from UniProt P01857)” yielded a Kd [1] of 0.23 nM, a Kd [2] of 0.28 nM and a Kd [3] of 0.27 nM. For the same substance, the Kd [4] was 0.17 nM, the EC50 [5] was 0.14 nM and the EC50 [6] was 0.38 nM. The EC50 [7] was 0.14 nM and the EC50 [8] was 0.13 nM.

Work on “antibody 198 (clonotype 198, 41F17-like) (from UniProt P01857)” yielded a Kd [1] of 1.63 nM, a Kd [2] of 2.29 nM and a Kd [3] of 0.28 nM. For the same substance, the Kd [4] was 0.11 nM, the EC50 [5] was 0.54 nM and the EC50 [6] was 1.41 nM. For the same substance, the EC50 [7] was 0.43 nM and the EC50 [8] was 0.9 nM.
